Data published in patent US20260242478A1 (published 2026).
Where no end group is shown, it is not given here.

B1: Phage-2303 (peptide)
peptide: LTKWCIPEWMCAVE
modifications: cysteine pairing not given here; also: displayed on bacteriophage by fusion to pIII
B2: Phage-2329 (peptide)
peptide: PEKWCIPPWMCTNF
modifications: cysteine pairing not given here; also: displayed on bacteriophage by fusion to pIII
B3: Phage-2334 (peptide)
peptide: EFIRCLPPWMCAGF
modifications: cysteine pairing not given here; also: displayed on bacteriophage by fusion to pIII
B4: Phage-2297 (peptide)
peptide: THKWCIPVWMCEHQ
notes: tested as crude clonal phage supernatant
B5: Phage-2298 (peptide)
peptide: WENWCTPEWMCNGF
modifications: cysteine pairing not given here; also: displayed on bacteriophage by fusion to pIII
B6: Phage-2296 (peptide)
peptide: NVKWCTPPWMCFLD
notes: as for B4

Assays:
[1] = biological target: Anti-PSMA Fab (006 PSMA Fab); assay: clonal phage ELISA on biotinylated PSMA Fab captured on neutravidin; bound phage detected with anti-M13-HRP; no PSMA antigen
Experimental: (§1) Clonal phage were harvested as crude supernatants and screened via standard ELISAs. […] Prior to the addition of clonal phage. wells were incubated with blocking buffer and PSMA antigen or blocking buffer alone. Without washing or aspirating, clonal phage supernatants were then added to the wells and incubated for a short time. Wells were then washed followed by detection of bound phage using a horse radish conjugated anti-M13 antibody.

[2] = biological target: Anti-PSMA Fab (006 PSMA Fab); assay: clonal phage ELISA on biotinylated PSMA Fab captured on neutravidin; PSMA antigen as competitor; anti-M13-HRP detection
Experimental: as §1

PSMA Fab (006 PSMA Fab) [3] = biological target: T1, PSMA Fab (006 PSMA Fab) (biotinylated (site not stated)); assay: phage ELISA, clonal phage on biotinylated PSMA Fab captured on neutravidin plate, anti-M13 HRP detection;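 further: crude clonal phage supernatants added to wells preincubated with PSMA antigen in blocking buffer or with blocking buffer only, giving a competition and a no-competitor control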
T1 construct: also called Anti-PSMA Fab

PSMA Fab (006 PSMA Fab) [4] = biological target: T1, PSMA Fab (006 PSMA Fab); assay: phage ELISA on captured PSMA Fab, wells pre-incubated with PSMA antigen as competitor
Experimental: as §1

[5] = biological target: T2, Anti-PSMA Fab (SEQ ID NOs: 19, 20); assay: phage binding ELISA; clonal phage on plate-captured biotinylated PSMA Fab, anti-M13 HRP detection
T2 construct: Biotinylated and captured on neutravidin coated plates in the phage ELISA; also called 006 PSMA Fab
Experimental: as §1

[6] = biological target: T2, Anti-PSMA Fab (SEQ ID NOs: 19, 20); assay: phage binding ELISA; plate-captured PSMA Fab pre-incubated with PSMA antigen as competitor, anti-M13 HRP detection
Experimental: as §1

| Binder | Phage binding ELISA signal, Anti-PSMA Fab [1] | phage binding ELISA signal (Anti-PSMA Fab, wells pre-incubated with PSMA antigen) [2] | Phage binding ELISA signal, Anti-PSMA Fab (PSMA Fab (006 PSMA Fab) [3]) | phage binding ELISA signal (Anti-PSMA Fab pre-incubated with PSMA antigen) (PSMA Fab (006 PSMA Fab) [4]) | also measured |
| --- | --- | --- | --- | --- | --- |
| MDNWCTPPWMCHGF [Phage-2299] | 1.49 | 0.0898 |  |  |  |
| WVQWCIPPWMCEPS [Phage-2300] | 1.49 | 0.14 |  |  |  |
| B1 | 1.48 | 0.102 |  |  |  |
| EAKWCTPPWMCMSM [Phage-2305] | 1.48 | 0.0593 |  |  |  |
| IEKWCIPLWMCEMQ [Phage-2309] | 1.48 | 0.0726 |  |  |  |
| QNTWCIPPWMCEVF [Phage-2306] | 1.48 | 0.0806 |  |  |  |
| GEIWCTPSWMCWGL [Phage-2341] |  |  | 1.43 | 0.0653 |  |
| MEIWCKPAWMCEST [Phage-2310] | 1.48 | 0.0714 |  |  |  |
| EFKMCIPQWMCQHQ [Phage-2312] | 1.47 | 0.0622 |  |  |  |
| SDTWCIPAWMCEGR [Phage-2343] |  |  | 1.43 | 0.0667 |  |
| EVKWCTPSWMCSGL [Phage-2330] |  |  | 1.45 | 0.06 |  |
| ELMWCIPPWMCEHS [Phage-2342] |  |  | 1.43 | 0.0888 |  |
| TVKWCIPSWMCQQS [Phage-2333] |  |  | 1.44 | 0.102 |  |
| WYKWCTPAWMCEIS [Phage-2338] |  |  | 1.44 | 0.143 |  |
| YDRLCIPMWMCSSV [Phage-2307] | 1.48 | 0.0715 |  |  |  |
| VVNWCVPEWMCSGF [Phage-2332] |  |  | 1.45 | 0.0772 |  |

| Binder | Phage binding ELISA signal, Anti-PSMA Fab [1] | phage binding ELISA signal (Anti-PSMA Fab, wells pre-incubated with PSMA antigen) [2] | Phage binding ELISA signal, Anti-PSMA Fab (PSMA Fab (006 PSMA Fab) [3]) | phage binding ELISA signal (Anti-PSMA Fab pre-incubated with PSMA antigen) (PSMA Fab (006 PSMA Fab) [4]) | also measured |
| --- | --- | --- | --- | --- | --- |
| EGISCVPNWMCVGF [Phage-2339] |  |  | 1.44 | 0.119 |  |
| MVKLCIPEWMCDRQ [Phage-2337] |  |  | 1.44 | 0.0609 |  |
| B2 |  |  | 1.45 | 0.065 |  |
| B3 |  |  | 1.44 | 0.0734 |  |
| LVHMCKPAWMCTNL [Phage-2340] |  |  | 1.44 | 0.0708 |  |
| FEHWCTPEWMCLGM [Phage-2331] |  |  | 1.45 | 0.0623 |  |
| B4 |  |  |  |  | Anti-PSMA Fab (SEQ ID NOs: 19, 20) signal [5]: 1.5; Anti-PSMA Fab signal in the presence of PSMA [6]: 0.0929 |
| SMKWCTPAWMCERL [Phage-2301] | 1.49 | 0.115 |  |  |  |
| EPKWCTPAWMCSIV [Phage-2336] |  |  | 1.44 | 0.0668 |  |
| FANWCTPSWMCNFT [Phage-2302] | 1.48 | 0.152 |  |  |  |
| VQNWCIPAWMCEGK [Phage-2304] | 1.48 | 0.0686 |  |  |  |
| B5 | 1.49 | 0.0767 |  |  |  |
| ASNWCIPTWMCEGS [Phage-2335] |  |  | 1.44 | 0.0671 |  |
| PEKWCIPDWMCTVY [Phage-2311] | 1.48 | 0.0815 |  |  |  |
| EWKWCTPPWMCQYE [Phage-2308] | 1.48 | 0.0874 |  |  |  |
| B6 |  |  |  |  | Anti-PSMA Fab (SEQ ID NOs: 19, 20) signal [5]: 1.5; Anti-PSMA Fab signal in the presence of PSMA [6]: 0.0656 |
